For 1 molecule, Kd results are on record in article PMC9463231 (2022).

Holding throughout (experiment): SPR
A general note: In SPR one partner is held on a chip, and binding of the other changes the refractive index at the surface.

Experiment [1] addresses T1, biotinylated mouse FcγRI (mouse, UniProt P26151 25-297, biotin).
T1 chain: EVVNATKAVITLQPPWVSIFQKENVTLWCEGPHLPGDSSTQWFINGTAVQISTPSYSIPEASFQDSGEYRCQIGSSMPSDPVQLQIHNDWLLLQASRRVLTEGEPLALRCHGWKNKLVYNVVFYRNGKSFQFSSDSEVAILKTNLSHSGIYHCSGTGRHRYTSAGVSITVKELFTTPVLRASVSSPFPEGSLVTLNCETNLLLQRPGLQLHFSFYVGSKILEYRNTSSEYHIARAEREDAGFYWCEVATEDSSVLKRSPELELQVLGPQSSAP

The target of experiment [2] is T2, biotinylated mouse FcγRIV (mouse, UniProt A0A0B4J1G0 21-203, biotin).
T2 chain: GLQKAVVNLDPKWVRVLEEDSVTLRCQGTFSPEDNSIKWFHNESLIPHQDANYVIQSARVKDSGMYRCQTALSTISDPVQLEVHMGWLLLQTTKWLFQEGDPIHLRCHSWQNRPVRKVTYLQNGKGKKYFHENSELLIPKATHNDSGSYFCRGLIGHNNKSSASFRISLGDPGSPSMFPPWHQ

Experiment [3] concerns the target T3, His-tagged mouse FcγRIII (mouse, UniProt P08508 31-261).
T3 chain: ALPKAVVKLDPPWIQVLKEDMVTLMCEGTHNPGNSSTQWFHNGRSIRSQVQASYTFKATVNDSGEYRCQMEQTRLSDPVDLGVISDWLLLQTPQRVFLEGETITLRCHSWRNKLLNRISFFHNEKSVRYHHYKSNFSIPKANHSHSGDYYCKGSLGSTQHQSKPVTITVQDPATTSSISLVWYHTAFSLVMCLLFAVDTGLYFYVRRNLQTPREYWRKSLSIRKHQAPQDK

B1: Ipilimumab mIgG2a wildtype (anti-human CTLA-4 mIgG2a with an intact Fc domain) (antibody)
chain 1: QVQLVESGGGVVQPGRSLRLSCAASGFTFSSYTMHWVRQAPGKGLEWVTFISYDGNNKYYADSVKGRFTISRDNSKNTLYLQMNSLRAEDTAIYYCARTGWLGPFDYWGQGTLVTVSS
chain 2: not shown
For orientation: Kd means the concentration at which binding is half-saturated. Lower therefore signals higher affinity. In the case of B1, the Kd in experiment [1] was 85.8 nM; in experiment [2], 388 nM; in experiment [3], 3690 nM.
